System: Spo22p
Test: qB2H v3 fluorescence, Spo22p vs ECM11
Type: cell-based, Saccharomyces cerevisiae
Conditions: Acella, qB2H v3, cI-Spo22p 786-886, IPTG(200µM) + ATC (200ng/mL)
Experimental: Precultures of untransformed (for intrinsic fluorescence evaluation) and transformed SB39 cells were diluted (3 μl into 300 μl of fresh medium) in 2-ml microtubes and grown in ThermoMixer C (Eppendorf; 37 °C at 900 rpm) for 2 h. Cultures with an OD600 of approximately 0.5 were then mixed with 100 μl of the same medium containing 4× inducer concentration. […] The induced cultures were grown overnight at 18 °C, diluted (1 μl) in freshly filtered (0.22 μm) phosphate-buffered saline buffer (1 ml per OD unit), and analyzed using guava easyCyte HT (488-nm blue laser). The gating for event analysis was set to minimize background noise (fewer than 100 gated events per 10 μl of sterile phosphate-buffered saline). Ten thousand events were collected per culture, and the MFI was recorded. To allow comparison across independent experiments, SB39 cells cotransformed with VN519 (pBRα-rpoA-ip3_mut3A) and VN550 (pAC-cI_E34P-ASF1A_Term_f1-pOL2-62_L-eGFP-KanR) or VN517 (pBRα-rpoA-ip3) and VN550 were included as internal controls. […]
MFI(x) represents the MFI of a given condition or culture. MFI(low) corresponds to the fluorescence produced by SB39 cells cotransformed with VN519 and VN550, indicating no detectable interaction (Kd > 100,000 nM). […]
Interactions involving distinct protein domains and folding variants were assessed using qB2H systems v1, v2, and v3. […]

B1: ECM11: Q04110 1-302, Saccharomyces cerevisiae (protein, UniProt Q04110 1-302, looked up)
Protein ECM11: MTVIKTEPTTEVTLYSPPSKESLSKDDAHRKKQNNKPPSSINSRSGPNKHKLAAKAPEKKINNTDKQDLSAFLLNPSLIVKPSESKKKENIVAYNDTPGIKTEHTAFQPLTPISKKRALKEKAASEKCDSFDLSRDEKPYIQKKSKTLSSVTEINSSEYKLSLNGENTSSPAKEKSQEPIENPGSYQKTRNYLFEKPDPLDTCLQDYSSMLPSNVAEEDQEYFISVADSTLEEWTNKGQEIIDQQFQLYQEIIKKRIELSYKFKGIISVINDRADALEEQGQQLEGKIKKVKTLANEILNII
  Norm. MFI: 7.70%

Reference: PMC13199644, “Optimized Quantitative Bacterial Two-Hybrid (qB2H) for Protein–Protein Interaction Assessment” (Computational and Structural Biotechnology Journal, 2026)
